Experimental data taken from patent publication US20200115416A1 (REGENTS OF THE UNIVERSITY OF MINNESOTA, published 2020).
Where two headings read alike, the source gives them in different places. Square brackets hold non-standard residues; d marks the D form. hPhe = N[C@@H](CCc1ccccc1)C(=O)O; Nle = CCCC[C@H](N)C(=O)O; Dap = NC[C@H](N)C(=O)O

Experiments:
Test in all cases: cell-based or functional assay
[1] = molecular target: T1, mouse melanocortin-1 receptor (mouse, UniProt Q01727 1-315)
[2] = molecular target: T1, mouse melanocortin-1 receptor; remark: listed apart in the source
[3] = molecular target: T2, mouse melanocortin-4 receptor (mouse, UniProt P56450 1-332)
T2 sequence (P56450 whole entry): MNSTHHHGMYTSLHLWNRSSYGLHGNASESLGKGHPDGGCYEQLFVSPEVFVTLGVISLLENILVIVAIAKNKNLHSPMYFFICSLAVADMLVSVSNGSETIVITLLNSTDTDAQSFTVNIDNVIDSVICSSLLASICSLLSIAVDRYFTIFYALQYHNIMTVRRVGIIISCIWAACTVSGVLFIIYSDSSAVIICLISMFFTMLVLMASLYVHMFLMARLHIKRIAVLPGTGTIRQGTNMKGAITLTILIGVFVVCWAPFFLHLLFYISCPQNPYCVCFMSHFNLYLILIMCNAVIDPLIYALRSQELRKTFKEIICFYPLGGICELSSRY

[4] = molecular target: T3, mouse melanocortin-3 receptor (mouse, UniProt P33033 1-323)
T3 sequence (P33033 whole entry): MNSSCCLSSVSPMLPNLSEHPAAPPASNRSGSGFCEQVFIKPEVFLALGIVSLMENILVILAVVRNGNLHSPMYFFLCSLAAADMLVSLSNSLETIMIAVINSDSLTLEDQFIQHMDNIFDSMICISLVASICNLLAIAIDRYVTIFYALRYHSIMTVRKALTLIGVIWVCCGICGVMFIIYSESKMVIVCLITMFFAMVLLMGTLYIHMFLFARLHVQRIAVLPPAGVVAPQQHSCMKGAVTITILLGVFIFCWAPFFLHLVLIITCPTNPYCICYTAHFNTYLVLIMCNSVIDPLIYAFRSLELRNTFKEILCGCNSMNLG

[5] = molecular target: T4, mouse melanocortin-5 receptor (mouse, UniProt P41149 1-325)
T4 sequence (P41149 whole entry): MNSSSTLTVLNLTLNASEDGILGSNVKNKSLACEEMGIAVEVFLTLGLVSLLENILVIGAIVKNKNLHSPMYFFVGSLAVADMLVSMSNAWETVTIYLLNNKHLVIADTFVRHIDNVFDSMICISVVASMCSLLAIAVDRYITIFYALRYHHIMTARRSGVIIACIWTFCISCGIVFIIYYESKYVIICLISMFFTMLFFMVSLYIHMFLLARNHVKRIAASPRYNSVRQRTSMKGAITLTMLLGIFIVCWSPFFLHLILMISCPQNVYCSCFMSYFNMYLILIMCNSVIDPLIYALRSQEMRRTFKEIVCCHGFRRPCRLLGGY

[6] = molecular target: T1, mouse melanocortin-1 receptor; remark: listed apart in the source
[7] = molecular target: T4, mouse melanocortin-5 receptor; remark: listed apart in the source
[8] = molecular target: T2, mouse melanocortin-4 receptor; remark: listed apart in the source
[9] = molecular target: T3, mouse melanocortin-3 receptor; remark: listed apart in the source

T1 sequence (Q01727 whole entry): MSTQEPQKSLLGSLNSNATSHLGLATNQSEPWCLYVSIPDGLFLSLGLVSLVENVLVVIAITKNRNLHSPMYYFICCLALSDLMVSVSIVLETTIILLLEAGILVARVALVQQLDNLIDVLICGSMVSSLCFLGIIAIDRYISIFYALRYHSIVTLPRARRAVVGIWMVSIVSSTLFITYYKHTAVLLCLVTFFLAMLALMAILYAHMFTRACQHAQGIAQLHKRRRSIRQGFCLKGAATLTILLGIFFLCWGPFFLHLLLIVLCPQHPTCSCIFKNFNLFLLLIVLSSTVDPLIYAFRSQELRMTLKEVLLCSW

Binder: cyclo(P[dR]FFNAF[dP]) [c[Pro-DArg-Phe-Phe-Asn-Ala-Phe-DPro]]
- % maximal NDP-MSH response at 100 µM (cAMP AlphaScreen) [1]: 50%

Binder: cyclo(PR[dF]FNAF[dP]) [c[Pro-Arg-DPhe-Phe-Asn-Ala-Phe-DPro]]
- agonist EC50 (cAMP AlphaScreen) [1]: 0.7 µM

Binder: cyclo(PRF[dF]NAF[dP]) [c[Pro-Arg-Phe-DPhe-Asn-Ala-Phe-DPro]]
- % maximal NDP-MSH response at 100 µM (cAMP AlphaScreen) [1]: 50%

Binder: cyclo(P[dR][dF]FNAF[dP]) [c[Pro-DArg-DPhe-Phe-Asn-Ala-Phe-DPro]]
- agonist EC50 (cAMP AlphaScreen) [1]: 0.5 µM
- partial agonist efficacy, % of NDP-MSH [1]: 90%

Binder: cyclo(PR[dF][dF]NAF[dP]) [c[Pro-Arg-DPhe-DPhe-Asn-Ala-Phe-DPro]]
- agonist EC50 (cAMP AlphaScreen) [1]: 0.8 µM
- partial agonist efficacy, % of NDP-MSH [1]: 85%

Binder: cyclo(P[dR][dF][dF]NAF[dP]) [c[Pro-DArg-DPhe-DPhe-Asn-Ala-Phe-DPro]]
- agonist EC50 (cAMP AlphaScreen) [1]: 1.3 µM
- partial agonist efficacy, % of NDP-MSH [1]: 85%

B1: c[Pro-Arg-Phe-Phe-Asn-Ser-Nle-DPro] (peptide)
peptide: cyclo(PRFFNS[Nle][dP])
SMILES: CCCC[C@@H]1NC(=O)[C@H](CO)NC(=O)[C@H](CC(N)=O)NC(=O)[C@H](Cc2ccccc2)NC(=O)[C@H](Cc2ccccc2)NC(=O)[C@H](CCCNC(=N)N)NC(=O)[C@@H]2CCCN2C(=O)[C@H]2CCCN2C1=O
- agonist EC50 (cAMP AlphaScreen) [2]: 2.6 µM
- partial agonist, % receptor stimulation [2]: 75%
- antagonist pA2 (Schild, agonist NDP-MSH) [3]: 8.5
- antagonist pA2 (Schild, agonist NDP-MSH) [4]: 6.6

B2: c[Pro-Arg-Phe-Phe-Dap-Ala-Nle-DPro] (peptide)
peptide: cyclo(PRFF[Dap]A[Nle][dP])
SMILES: CCCC[C@@H]1NC(=O)[C@H](C)NC(=O)[C@H](CN)NC(=O)[C@H](Cc2ccccc2)NC(=O)[C@H](Cc2ccccc2)NC(=O)[C@H](CCCNC(=N)N)NC(=O)[C@@H]2CCCN2C(=O)[C@H]2CCCN2C1=O
- agonist EC50 (cAMP AlphaScreen) [2]: 0.19 µM
- EC50 (cAMP AlphaScreen, inverse agonist) [5]: > 100 µM
- antagonist pA2 (Schild, agonist NDP-MSH) [3]: 9
- antagonist pA2 (Schild, agonist NDP-MSH) [4]: 7.1

B3: c[Pro-Arg-Phe-Phe-Dap-Ser-Phe-DPro] (peptide)
peptide: cyclo(PRFF[Dap]SF[dP])
SMILES: N=C(N)NCCC[C@@H]1NC(=O)[C@@H]2CCCN2C(=O)[C@H]2CCCN2C(=O)[C@H](Cc2ccccc2)NC(=O)[C@H](CO)NC(=O)[C@H](CN)NC(=O)[C@H](Cc2ccccc2)NC(=O)[C@H](Cc2ccccc2)NC1=O
- agonist EC50 (cAMP AlphaScreen) [2]: 0.6 µM
- partial agonist, % receptor stimulation [2]: 85%
- EC50 (cAMP AlphaScreen, inverse agonist) [5]: > 100 µM
- antagonist pA2 (Schild, agonist NDP-MSH) [3]: 9.1
- antagonist pA2 (Schild, agonist NDP-MSH) [4]: 6.8

B4: c[Pro-Arg-Phe-Phe-Dap-Ser-Nle-DPro] (peptide)
peptide: cyclo(PRFF[Dap]S[Nle][dP])
SMILES: CCCC[C@@H]1NC(=O)[C@H](CO)NC(=O)[C@H](CN)NC(=O)[C@H](Cc2ccccc2)NC(=O)[C@H](Cc2ccccc2)NC(=O)[C@H](CCCNC(=N)N)NC(=O)[C@@H]2CCCN2C(=O)[C@H]2CCCN2C1=O
- agonist EC50 (cAMP AlphaScreen) [2]: > 100 µM
- EC50 (cAMP AlphaScreen, inverse agonist) [5]: > 100 µM
- antagonist pA2 (Schild, agonist NDP-MSH) [3]: 9.1
- antagonist pA2 (Schild, agonist NDP-MSH) [4]: 6.5

Binder: cyclo(PRFFRAF[dP]) [c[Pro-Arg-Phe-Phe-Arg-Ala-Phe-DPro]]
- agonist EC50 (cAMP AlphaScreen) [2]: 0.6 µM
- partial agonist, % receptor stimulation [2]: 25%
- EC50 (cAMP AlphaScreen, inverse agonist) [5]: > 100 µM
- antagonist pA2 (Schild, agonist NDP-MSH) [3]: 8.7
- antagonist pA2 (Schild, agonist NDP-MSH) [4]: 7.4

B5: c[Pro-Arg-Phe-Phe-Arg-Ala-Nle-DPro] (peptide)
peptide: cyclo(PRFFRA[Nle][dP])
SMILES: CCCC[C@@H]1NC(=O)[C@H](C)NC(=O)[C@H](CCCNC(=N)N)NC(=O)[C@H](Cc2ccccc2)NC(=O)[C@H](Cc2ccccc2)NC(=O)[C@H](CCCNC(=N)N)NC(=O)[C@@H]2CCCN2C(=O)[C@H]2CCCN2C1=O
- agonist EC50 (cAMP AlphaScreen) [2]: > 100 µM
- EC50 (cAMP AlphaScreen, inverse agonist) [5]: > 100 µM
- antagonist pA2 (Schild, agonist NDP-MSH) [3]: 9.1
- antagonist pA2 (Schild, agonist NDP-MSH) [4]: 7.5

B6: c[Pro-Arg-Phe-Phe-Arg-Ser-Phe-DPro] (peptide)
peptide: cyclo(PRFFRSF[dP])
SMILES: N=C(N)NCCC[C@@H]1NC(=O)[C@H](Cc2ccccc2)NC(=O)[C@H](Cc2ccccc2)NC(=O)[C@H](CCCNC(=N)N)NC(=O)[C@@H]2CCCN2C(=O)[C@H]2CCCN2C(=O)[C@H](Cc2ccccc2)NC(=O)[C@H](CO)NC1=O
- agonist EC50 (cAMP AlphaScreen) [2]: > 100 µM
- EC50 (cAMP AlphaScreen, inverse agonist) [5]: > 100 µM
- antagonist pA2 (Schild, agonist NDP-MSH) [3]: 9
- antagonist pA2 (Schild, agonist NDP-MSH) [4]: 7.1

B7: c[Pro-Arg-Phe-Phe-Arg-Ser-Nle-DPro] (peptide)
peptide: cyclo(PRFFRS[Nle][dP])
SMILES: CCCC[C@@H]1NC(=O)[C@H](CO)NC(=O)[C@H](CCCNC(=N)N)NC(=O)[C@H](Cc2ccccc2)NC(=O)[C@H](Cc2ccccc2)NC(=O)[C@H](CCCNC(=N)N)NC(=O)[C@@H]2CCCN2C(=O)[C@H]2CCCN2C1=O
- agonist EC50 (cAMP AlphaScreen) [2]: > 100 µM
- EC50 (cAMP AlphaScreen, inverse agonist) [5]: > 100 µM
- antagonist pA2 (Schild, agonist NDP-MSH) [3]: 9.6
- antagonist pA2 (Schild, agonist NDP-MSH) [4]: 7.1

B8: c[Pro-Arg-Phe-hPhe-Asn-Ala-Nle-DPro] (peptide)
peptide: cyclo(PRF[hPhe]NA[Nle][dP])
SMILES: CCCC[C@@H]1NC(=O)[C@H](C)NC(=O)[C@H](CC(N)=O)NC(=O)[C@H](CCc2ccccc2)NC(=O)[C@H](Cc2ccccc2)NC(=O)[C@H](CCCNC(=N)N)NC(=O)[C@@H]2CCCN2C(=O)[C@H]2CCCN2C1=O
- EC50 (cAMP AlphaScreen, inverse agonist) [5]: > 100 µM

B9: c[Pro-Arg-Phe-hPhe-Asn-Ser-Phe-DPro] (peptide)
peptide: cyclo(PRF[hPhe]NSF[dP])
SMILES: N=C(N)NCCC[C@@H]1NC(=O)[C@@H]2CCCN2C(=O)[C@H]2CCCN2C(=O)[C@H](Cc2ccccc2)NC(=O)[C@H](CO)NC(=O)[C@H](CC(N)=O)NC(=O)[C@H](CCc2ccccc2)NC(=O)[C@H](Cc2ccccc2)NC1=O
- % receptor stimulation at 100 µM (cAMP AlphaScreen) [2]: 40%
- EC50 (cAMP AlphaScreen, inverse agonist) [5]: > 100 µM
- antagonist pA2 (Schild, agonist NDP-MSH) [3]: 8.6
- antagonist pA2 (Schild, agonist NDP-MSH) [4]: 6.5

B10: c[Pro-Arg-Phe-hPhe-Asn-Ser-Nle-DPro] (peptide)
peptide: cyclo(PRF[hPhe]NS[Nle][dP])
SMILES: CCCC[C@@H]1NC(=O)[C@H](CO)NC(=O)[C@H](CC(N)=O)NC(=O)[C@H](CCc2ccccc2)NC(=O)[C@H](Cc2ccccc2)NC(=O)[C@H](CCCNC(=N)N)NC(=O)[C@@H]2CCCN2C(=O)[C@H]2CCCN2C1=O
- agonist EC50 (cAMP AlphaScreen) [2]: > 100 µM
- EC50 (cAMP AlphaScreen, inverse agonist) [5]: > 100 µM
- antagonist pA2 (Schild, agonist NDP-MSH) [3]: 9.2
- antagonist pA2 (Schild, agonist NDP-MSH) [4]: 6.3

Binder: PRFFXAFP (head-to-tail cyclic; hPhe at 4; Dap at 5; DPro at 8) [c[Pro-Arg-Phe-hPhe-Dap-Ala-Phe-DPro]]
- agonist EC50 (cAMP AlphaScreen) [2]: 0.56 µM
- partial agonist, % receptor stimulation [2]: 70%
- EC50 (cAMP AlphaScreen, inverse agonist) [5]: > 100 µM
- antagonist pA2 (Schild, agonist NDP-MSH) [4]: 7.1

B11: c[Pro-Arg-Phe-hPhe-Dap-Ala-Nle-DPro] (peptide)
peptide: cyclo(PRF[hPhe][Dap]A[Nle][dP])
SMILES: CCCC[C@@H]1NC(=O)[C@H](C)NC(=O)[C@H](CN)NC(=O)[C@H](CCc2ccccc2)NC(=O)[C@H](Cc2ccccc2)NC(=O)[C@H](CCCNC(=N)N)NC(=O)[C@@H]2CCCN2C(=O)[C@H]2CCCN2C1=O
- agonist EC50 (cAMP AlphaScreen) [2]: > 100 µM
- EC50 (cAMP AlphaScreen, inverse agonist) [5]: > 100 µM
- antagonist pA2 (Schild, agonist NDP-MSH) [3]: 9.1
- antagonist pA2 (Schild, agonist NDP-MSH) [4]: 6.7

B12: c[Pro-Arg-Phe-hPhe-Dap-Ser-Phe-DPro] (peptide)
peptide: cyclo(PRF[hPhe][Dap]SF[dP])
SMILES: N=C(N)NCCC[C@@H]1NC(=O)[C@@H]2CCCN2C(=O)[C@H]2CCCN2C(=O)[C@H](Cc2ccccc2)NC(=O)[C@H](CO)NC(=O)[C@H](CN)NC(=O)[C@H](CCc2ccccc2)NC(=O)[C@H](Cc2ccccc2)NC1=O
- % receptor stimulation at 100 µM (cAMP AlphaScreen) [2]: 40%
- EC50 (cAMP AlphaScreen, inverse agonist) [5]: > 100 µM
- antagonist pA2 (Schild, agonist NDP-MSH) [3]: 9.2
- antagonist pA2 (Schild, agonist NDP-MSH) [4]: 7.2

B13: c[Pro-Arg-Phe-Phe-Thr-Ala-Phe-DPro] (peptide)
peptide: cyclo(PRFFTAF[dP])
SMILES: C[C@@H]1NC(=O)[C@H]([C@@H](C)O)NC(=O)[C@H](Cc2ccccc2)NC(=O)[C@H](Cc2ccccc2)NC(=O)[C@H](CCCNC(=N)N)NC(=O)[C@@H]2CCCN2C(=O)[C@H]2CCCN2C(=O)[C@H](Cc2ccccc2)NC1=O
- agonist EC50 (cAMP AlphaScreen) [6]: > 100 µM
- inverse agonist apparent potency [7]: 0.05 µM
- inverse agonist, % decrease from basal cAMP [7]: -20%
- agonist EC50 (cAMP AlphaScreen) [8]: > 100 µM
- antagonist pA2 (Schild, agonist NDP-MSH) [8]: 7.76
- agonist EC50 (cAMP AlphaScreen) [9]: > 100 µM
- antagonist pA2 (Schild, agonist NDP-MSH) [9]: 6.4

Binder: cyclo(PRFF[Nle]AF[dP]) [c[Pro-Arg-Phe-Phe-Nle-Ala-Phe-DPro]]
- agonist EC50 (cAMP AlphaScreen) [6]: > 100 µM
- agonist EC50 (cAMP AlphaScreen) [7]: > 100 µM
- agonist EC50 (cAMP AlphaScreen) [8]: > 100 µM
- antagonist pA2 (Schild, agonist NDP-MSH) [8]: 6.9
- agonist EC50 (cAMP AlphaScreen) [9]: > 100 µM
- antagonist pA2 (Schild, agonist NDP-MSH) [9]: < 5.5

B14: c[Pro-Arg-Phe-Phe-Leu-Ala-Phe-DPro] (peptide)
peptide: cyclo(PRFFLAF[dP])
SMILES: CC(C)C[C@@H]1NC(=O)[C@H](Cc2ccccc2)NC(=O)[C@H](Cc2ccccc2)NC(=O)[C@H](CCCNC(=N)N)NC(=O)[C@@H]2CCCN2C(=O)[C@H]2CCCN2C(=O)[C@H](Cc2ccccc2)NC(=O)[C@H](C)NC1=O
- agonist EC50 (cAMP AlphaScreen) [6]: > 100 µM
- inverse agonist apparent potency [7]: 0.11 µM
- inverse agonist, % decrease from basal cAMP [7]: -20%
- agonist EC50 (cAMP AlphaScreen) [8]: > 100 µM
- antagonist pA2 (Schild, agonist NDP-MSH) [8]: 7.34
- agonist EC50 (cAMP AlphaScreen) [9]: > 100 µM
- antagonist pA2 (Schild, agonist NDP-MSH) [9]: 5.7
